Experiment [1] has as its target T1, cell surface-expressed human αvβ8 (human, UniProt P06756 31-1048; P26012 43-769).
T1 construct: whole, on cells; also called αvβ8 on SNB19 human astrocytoma cells
As to the kind of experiment: FACS on SNB19 human astrocytoma cells, fluorescent secondary antibody. The protocol:
(§1) The affinities of ADWA16-3.2 and ADWA11 were measured on SNB19 human astrocytoma cells by FACS. IgGs were incubated at various concentrations with SNB19 cells for 1 hour at RT in PBS. Cells were washed twice with PBS and binding was detected by incubation with fluorescently-labeled anti-human secondary antibodies followed by two PBS wash steps and analysis by FACS. Binding affinities were calculated using curve-fitting software.

The target of experiment [2] is T1, cell surface-expressed human αvβ8. As to the kind of experiment: cell-based or functional assay.
The target is the same in experiment [3]. As to the kind of experiment: FACS titration on SNB19 human astrocytoma cells; Example 13 FACS on SNB19 cells; detected with anti-human secondary, ADWA11 format not stated. The protocol:
as §1

Experiment [4] has as its target T2, surface-expressed mouse αvβ8 on murine astrocytes (mouse, UniProt P43406 31-1044; Q0VBD0 22-767).
T2 construct: whole, on cells
As to the kind of experiment: FACS titration on murine astrocytes. The protocol: The affinities of ADWA16, ADWA11, and ADWA16-3.2 were measured on murine astrocytes by FACS. IgGs were incubated at various concentrations with the cells for 1 hr at RT in PBS. Cells were washed twice with PBS and binding was detected by incubation with fluorescently-labeled anti-human or anti-mouse secondary antibodies followed by two PBS wash steps and analysis by FACS.

T1 sequence (P06756 31-1048, chain 1 of 2): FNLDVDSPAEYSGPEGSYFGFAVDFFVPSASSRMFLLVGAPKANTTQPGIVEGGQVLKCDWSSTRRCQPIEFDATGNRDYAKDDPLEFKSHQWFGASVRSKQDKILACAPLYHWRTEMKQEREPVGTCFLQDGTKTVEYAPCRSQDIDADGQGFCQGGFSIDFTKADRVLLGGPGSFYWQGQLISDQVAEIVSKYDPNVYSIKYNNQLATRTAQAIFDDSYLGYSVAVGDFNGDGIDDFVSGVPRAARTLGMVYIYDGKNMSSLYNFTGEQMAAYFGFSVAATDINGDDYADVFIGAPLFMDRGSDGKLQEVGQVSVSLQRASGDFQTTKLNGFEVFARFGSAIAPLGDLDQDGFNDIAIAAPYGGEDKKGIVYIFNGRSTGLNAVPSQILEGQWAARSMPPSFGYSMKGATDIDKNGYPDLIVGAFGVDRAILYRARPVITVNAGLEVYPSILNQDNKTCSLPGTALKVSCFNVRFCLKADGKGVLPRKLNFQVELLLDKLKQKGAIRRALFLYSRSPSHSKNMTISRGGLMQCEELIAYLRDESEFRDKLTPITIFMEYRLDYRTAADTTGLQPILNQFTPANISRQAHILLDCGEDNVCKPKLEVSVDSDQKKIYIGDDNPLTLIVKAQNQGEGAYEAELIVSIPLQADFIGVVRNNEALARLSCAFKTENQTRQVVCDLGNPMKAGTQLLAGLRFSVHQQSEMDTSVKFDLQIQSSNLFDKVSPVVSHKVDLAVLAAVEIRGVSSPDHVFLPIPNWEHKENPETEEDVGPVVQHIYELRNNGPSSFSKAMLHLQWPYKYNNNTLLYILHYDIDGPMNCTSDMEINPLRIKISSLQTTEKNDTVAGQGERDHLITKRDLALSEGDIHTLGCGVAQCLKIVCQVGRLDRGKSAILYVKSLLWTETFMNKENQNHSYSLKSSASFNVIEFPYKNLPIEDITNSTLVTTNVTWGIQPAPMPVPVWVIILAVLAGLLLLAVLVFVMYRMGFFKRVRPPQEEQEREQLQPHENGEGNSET
T1 sequence (P26012 43-769, chain 2 of 2): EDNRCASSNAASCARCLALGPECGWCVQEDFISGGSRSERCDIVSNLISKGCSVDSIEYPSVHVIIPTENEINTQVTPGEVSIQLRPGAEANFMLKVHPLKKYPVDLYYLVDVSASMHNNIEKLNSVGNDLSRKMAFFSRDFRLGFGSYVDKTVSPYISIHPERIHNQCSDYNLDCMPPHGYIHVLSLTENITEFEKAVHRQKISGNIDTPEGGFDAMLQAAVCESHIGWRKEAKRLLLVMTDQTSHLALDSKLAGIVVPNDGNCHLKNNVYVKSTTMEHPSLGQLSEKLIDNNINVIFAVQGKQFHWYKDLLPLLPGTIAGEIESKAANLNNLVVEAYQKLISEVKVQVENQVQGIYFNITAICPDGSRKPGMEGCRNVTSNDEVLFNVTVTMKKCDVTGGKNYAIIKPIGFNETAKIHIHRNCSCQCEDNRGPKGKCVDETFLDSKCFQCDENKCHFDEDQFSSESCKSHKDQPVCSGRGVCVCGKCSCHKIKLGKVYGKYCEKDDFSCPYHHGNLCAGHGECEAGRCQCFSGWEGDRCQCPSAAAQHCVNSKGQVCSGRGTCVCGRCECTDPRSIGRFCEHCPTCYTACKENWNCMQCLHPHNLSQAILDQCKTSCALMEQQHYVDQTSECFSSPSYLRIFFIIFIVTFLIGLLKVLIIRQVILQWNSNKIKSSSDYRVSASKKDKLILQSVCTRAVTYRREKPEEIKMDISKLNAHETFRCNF
T2 sequence (P43406 31-1044, chain 1 of 2): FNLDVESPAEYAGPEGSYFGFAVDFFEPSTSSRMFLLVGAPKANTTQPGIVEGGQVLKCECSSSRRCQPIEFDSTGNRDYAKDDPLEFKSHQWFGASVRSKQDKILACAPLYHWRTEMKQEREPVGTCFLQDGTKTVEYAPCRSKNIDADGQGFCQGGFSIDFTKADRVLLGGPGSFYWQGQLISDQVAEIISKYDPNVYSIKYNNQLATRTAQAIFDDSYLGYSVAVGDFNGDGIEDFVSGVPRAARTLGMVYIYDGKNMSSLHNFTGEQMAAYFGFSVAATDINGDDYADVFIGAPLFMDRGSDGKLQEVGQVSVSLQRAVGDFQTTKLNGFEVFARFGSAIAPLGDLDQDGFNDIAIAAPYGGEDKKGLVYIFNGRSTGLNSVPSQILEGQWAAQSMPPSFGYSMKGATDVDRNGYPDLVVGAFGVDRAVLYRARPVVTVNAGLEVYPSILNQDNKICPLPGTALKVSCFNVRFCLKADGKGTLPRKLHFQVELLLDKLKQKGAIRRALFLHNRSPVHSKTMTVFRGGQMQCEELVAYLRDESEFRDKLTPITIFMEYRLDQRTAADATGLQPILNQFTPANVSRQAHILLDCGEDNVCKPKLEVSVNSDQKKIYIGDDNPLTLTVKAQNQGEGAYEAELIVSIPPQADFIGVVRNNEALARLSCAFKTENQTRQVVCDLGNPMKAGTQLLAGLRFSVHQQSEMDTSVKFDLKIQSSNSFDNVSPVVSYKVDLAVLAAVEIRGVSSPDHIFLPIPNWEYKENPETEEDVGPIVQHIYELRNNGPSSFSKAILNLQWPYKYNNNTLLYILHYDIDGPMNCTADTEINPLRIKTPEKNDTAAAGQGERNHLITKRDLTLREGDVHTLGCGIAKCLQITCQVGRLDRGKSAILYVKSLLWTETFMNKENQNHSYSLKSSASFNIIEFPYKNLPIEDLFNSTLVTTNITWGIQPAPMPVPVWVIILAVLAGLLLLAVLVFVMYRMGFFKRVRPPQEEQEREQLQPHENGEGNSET
T2 sequence (Q0VBD0 22-767, chain 2 of 2): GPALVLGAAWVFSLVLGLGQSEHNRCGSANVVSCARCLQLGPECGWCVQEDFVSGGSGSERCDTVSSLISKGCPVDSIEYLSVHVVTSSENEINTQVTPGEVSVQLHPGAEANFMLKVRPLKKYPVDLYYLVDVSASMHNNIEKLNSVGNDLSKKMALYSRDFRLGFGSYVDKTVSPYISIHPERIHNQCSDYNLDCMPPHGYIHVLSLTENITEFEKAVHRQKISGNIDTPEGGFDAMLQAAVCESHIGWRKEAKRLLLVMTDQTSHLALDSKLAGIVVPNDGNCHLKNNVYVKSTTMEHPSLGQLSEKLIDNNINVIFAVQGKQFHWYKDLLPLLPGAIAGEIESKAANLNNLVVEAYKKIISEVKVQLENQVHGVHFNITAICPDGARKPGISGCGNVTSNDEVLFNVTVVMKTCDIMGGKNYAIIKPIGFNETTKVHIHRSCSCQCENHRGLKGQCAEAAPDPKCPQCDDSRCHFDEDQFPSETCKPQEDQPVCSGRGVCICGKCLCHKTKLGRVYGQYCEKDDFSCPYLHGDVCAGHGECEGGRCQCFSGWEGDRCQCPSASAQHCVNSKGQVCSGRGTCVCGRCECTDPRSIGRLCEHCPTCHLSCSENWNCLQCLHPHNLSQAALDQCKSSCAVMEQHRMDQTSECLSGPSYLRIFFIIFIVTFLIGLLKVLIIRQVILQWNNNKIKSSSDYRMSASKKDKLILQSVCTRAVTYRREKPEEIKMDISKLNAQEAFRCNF

B1: ADWA11 (antibody, V domains shown)
VH: EVQLQQSGAELVRPGAFVKLSCKASGFNIKDYYMNWVLQRPEQGLEWIGWIDPDNGNTIYDPKFQGKASITADTSSNTAYLQLSSLTSEDTAVYYCARRLLMDYWGQGTSVTVSS
VL: DIVMTQAAPSVPVTPGESVSISCRSTKSLLHFNGNTYLFWFLQRPGQSPQRLIYYMSNLASGVPDRFSGRGSGTDFTLRISRVEAEDVGVYYCMQSLEYPFTFGTGTKLEIK
notes: IgG; also called ADWA1l
For orientation: EC50 (read off the curve) means the midpoint of the concentration-response curve. A higher EC50 (read off the curve) goes with weaker potency. By Kd is commonly meant a measure of binding affinity in units of concentration. Higher therefore signals weaker binding. Turning to B1, the “EC50 (read off the curve)” value in experiment [1] was ~1 nM. Also, the “IC50, inhibition of SNB19 cell adhesion to TGFb1 LAP” value in experiment [2] worked out at 1.44 nM. In addition, the values for the Kd in experiment [3] and in experiment [4] were 1.04 nM and 5.6 nM, respectively.

Values taken from US20250002587A1 (University of California, published 2025).
